Measurements from publication PMC12871931, “The importin‐alpha superfamily engages in ethylene signaling by shuttling ETHYLENE INSENSITIVE 2 from the endoplasmic reticulum to the nucleus” (The Febs Journal, 2025).

Target: TAMRA‐NOP‐1 (EIN2 NLS peptide, N‐terminally labeled with 5‐TAMRA) (Arabidopsis thaliana)
Test: fluorescence polarisation; direct titration: TAMRA-NOP-1 constant at 250 nM, IMPα protein concentration varied; 50 μL samples; LS55 spectrometer; Kd by Logistic Fit in Origin; three independent measurements

IMPα7_ΔIBB (importin α7 lacking the N-terminal importin β binding domain), Arabidopsis thaliana, recombinant (domain or fragment)
Kd: 3 µM

ΔIBB_IMPα1 (importin α1 lacking the IBB domain), Arabidopsis thaliana, recombinant (domain or fragment)
Kd: 3.2 µM
